Assay results as given in US20240294573A1, “CONSTRAINED PEPTIDES” (TearSolutions, Inc., priority 2019, published 2024).
Bridge positions count the residues as written; N and C are the ends. Square brackets hold non-standard residues; d marks the D form. Ends that are not written are not given here. 2‑(7-octenyl)alanine = olefinic alpha-amino acid with 7-octenyl side chain, staple residue; 2‑(4-pentenyl)alanine = 2-(4-pentenyl)alanine

Experiments:
Assay type in all cases: physicochemical
[1] = Circular dichroism of cysteine disulfide constrained Lacripep acetate salts in citrate buffer (Example 8); settings: 10 mM sodium citrate buffer pH 6.5, 0.2 mg/mL, 35° C.; for helicity (CD spectra): absence of 10 mM DPC; for negative CD signal between 200 nm and 230 nm: presence of DPC (10 mM)
Experimental: (§1) Cysteine Disulfide Constrained Analogs of Lacripep™ (SEQ ID NO:1) were synthesized with N-terminal acetylation and C-terminal amidation as an acetate salt. The compounds were reconstituted in 10 mM sodium citrate buffer, pH 6.5 for circular dichroism, with or without 10 mM DPC. The resulting citric acid buffered solutions were tested for circular dichroism.
(§2) CD spectra were obtained using the Jasco 810 CD/ORD with Fluorescence Monochrometer in a 1 mm quartz cell from Starna Cells, Inc. Spectra were obtained at 35° C. from 250 nm to 190 nm in continuous scanning mode (scanning speed, 100 nm/min; data pitch, 0.1 nm; bandwidth, 1 nm; response time, 4 s) with a nitrogen flow rate of 100 mL/min. An average of 3 spectra were obtained for each sample (N=3).

[2] = Circular dichroism of alkene constrained (stapled) Lacripep acetate salts in citrate buffer (Example 7); settings: 10 mM sodium citrate buffer pH 6.5, 0.2 mg/mL, 35° C.
Experimental: as §1, with “Alkene” for “Cysteine Disulfide”, “n-DodecylPhosphoCholine (DPC).” for “DPC.”
as §2

[3] = Circular dichroism of Lacripep oleate salt vs acetate salt in citrate buffer (Example 3); settings: CD, 0.2 mg/mL, 10 mM sodium citrate buffer pH 6.5, 35° C.
Experimental: Lacripep™ (SEQ ID NO:1) was synthesized either without or with N-terminal acetylation and C-terminal amidation as an acetate salt. The compounds were reconstituted in 10 mM sodium citrate buffer, pH 6.5 for circular dichroism. Lacripep™ synthesized either without or with N-terminal acetylation and C-terminal amidation as an acetate salt was converted to an oleate salt by dissolving 1 equivalent of the Lacripep™ acetate salt and 4 equivalents of oleic acid (one oleic acid per lysine residue in Lacripep™) in a mixture of water buffered with citric acid to pH 6.5. The resulting solutions were then flash frozen and lyophilized under vacuum to remove the more volatile acetic acid. The lyophilized powder is suspended in water and the pH is adjusted to between 6.2 to 6.8 with citric acid and sodium citrate and the osmolality to between 250 to 350 mOsm/kg. […]
as §2, with “An average of 3 spectra were obtained for each sample (N=3).” left out

[4] = Circular dichroism of Lacripep acetate salt vs dodecylphosphocholine form in phosphate buffer (Example 2); settings: CD, 0.2 mg/ml; for alpha helicity: 10 mM phosphate, 137 mM NaCl, 2.7 mM KCl buffer pH 7.4, 35° C., dpC forms with 10 mM dodecylphosphocholine; for irregular: phosphate buffer pH 7.4, 35° C., 10 mM dodecylphosphocholine
Experimental: Lacripep™ (SEQ ID NO:1) was synthesized either without (unmodified, KQFIENGSEFAQKLLKKFS) or with (modified, Ac-KQFIENGSEFAQKLLKKFS-NH2)N-terminal acetylation and C-terminal amidation as an acetate salt. The compounds (0.2 mg/ml) were reconstituted in 10 mM phosphate, 137 mM NaCl, 2.7 mM KCl buffer, pH 7.4 with 10 mM dodecylphosphocholine for circular dichroism. CD spectra were obtained using the Jasco 810 CD/ORD with Fluorescence Monochrometer in a 1 mm quartz cell from Starna Cells, Inc. Spectra were obtained at 35° C. from 250 nm to 190 nm in continuous scanning mode (scanning speed, 100 nm/min; data pitch, 0.1 nm; bandwidth, 1 nm; response time, 4 s) with a nitrogen flow rate of 100 mL/min. An average of 3 spectra were obtained for each sample (N=3). Analysis of the dichroism spectra can use methods known in the art, including, DichroWeb: On-line analysis for protein Circular Dichroism spectra; Whitmore, L. and Wallace, B. A. (2008) Biopolymers 89: 392-400; Whitmore, L. and Wallace, B. A. (2004) Nucleic Acids Research 32: W668-673, each of which is incorporated by reference herein in its entirety.

| Substance | helicity (CD spectra) [1] | alpha helicity [4] [%] | further results |
| --- | --- | --- | --- |
| Ac-KQFIENGSEFAQKLLKKFS-NH2 (listed as Homo sapiens) [Lacripep] | significant helicity | – | helicity (CD spectra) ([2]; absence of 10 mM DPC): little helicity |
| Ac-KQFIENGSEFAQKLLKKFS-NH2 [modified acetate salt form] (also: acetate salt) [Lacripep with N-terminal acetylation and C-terminal amidation, acetate salt] | – | 28 | alpha helicity [3]: 29% |
| Ac-KQF IEN C(S-)SE C(S-)AQ KLL KKF S-NH2 (Ac-KQFIENCSECAQKLLKKFS-NH2; bridge 7-10; not fully specified (bridges); printed as Ac-KQF IEN C(S-)SE C(S-)AQ KLL KKF S-NH2; listed as Homo sapiens) [SEQ ID NO: 70] | significant helicity | – | – |
| Ac-KQF IEN GSE FAQ KC(S-)L KC(S-)F S-NH2 (Ac-KQFIENGSEFAQKCLKCFS-NH2; disulfide 14-17; SMILES CC[C@H](C)[C@H](NC(=O)[C@H](Cc1ccccc1)NC(=O)[C@H](CCC(N)=O)NC(=O)[C@H](CCCCN)NC(C)=O)C(=O)N[C@@H](CCC(=O)O)C(=O)N[C@@H](CC(N)=O)C(=O)NCC(=O)N[C@@H](CO)C(=O)N[C@@H](CCC(=O)O)C(=O)N[C@@H](Cc1ccccc1)C(=O)N[C@@H](C)C(=O)N[C@@H](CCC(N)=O)C(=O)N[C@@H](CCCCN)C(=O)N[C@H]1CSSC[C@@H](C(=O)N[C@@H](Cc2ccccc2)C(=O)N[C@@H](CO)C(N)=O)NC(=O)[C@H](CCCCN)NC(=O)[C@H](CC(C)C)NC1=O; listed as Homo sapiens) [SEQ ID NO: 69] | significant helicity | – | negative CD signal between 200 nm and 230 nm [1]: −5 to −10 Δε |
| Ac-KQFIENGSEFAQKLLKKFS-NH2 [modified dpC form] (also: dpC form) [terminally modified Lacripep constrained with 10 mM dodecylphosphocholine] | – | 100 | irregular [4]: 0% |
| KQFIENGSEFAQKLLKKFS [unmodified dpC form] (not fully specified (N-terminus, C-terminus)) [unmodified Lacripep constrained with 10 mM dodecylphosphocholine] | – | 92 | irregular [4]: 8% |
| Ac-KQ [2-(7-octenyl) alanine]-IENGSE-[2-(4-pentenyl) alanine]-AQKLLKKFS-NH2 (Ac-KQ[2‑(7-octenyl)alanine]IENGSE[2‑(4-pentenyl)alanine]AQKLLKKFS-NH2; staple 3-10; listed as Homo sapiens) [SEQ ID NO: 59] | – | – | negative CD signal between 200 nm and 230 nm ([2]; presence of 10 mM DPC): approximately −50 Δε |
| KQFIENGSEFAQKLLKKFS [unmodified acetate salt form] (not fully specified (N-terminus, C-terminus); also: acetate salt) [Lacripep without N-terminal acetylation and C-terminal amidation, acetate salt] | – | 27 | alpha helicity [3]: 28% |
| Ac-KQF C(S-)EN C(S-)SE FAQ KLL KKF S-NH2 (Ac-KQFCENCSEFAQKLLKKFS-NH2; disulfide 4-7; SMILES CC(=O)N[C@@H](CCCCN)C(=O)N[C@@H](CCC(N)=O)C(=O)N[C@@H](Cc1ccccc1)C(=O)N[C@H]1CSSC[C@@H](C(=O)N[C@@H](CO)C(=O)N[C@@H](CCC(=O)O)C(=O)N[C@@H](Cc2ccccc2)C(=O)N[C@@H](C)C(=O)N[C@@H](CCC(N)=O)C(=O)N[C@@H](CCCCN)C(=O)N[C@@H](CC(C)C)C(=O)N[C@@H](CC(C)C)C(=O)N[C@@H](CCCCN)C(=O)N[C@@H](CCCCN)C(=O)N[C@@H](Cc2ccccc2)C(=O)N[C@@H](CO)C(N)=O)NC(=O)[C@H](CC(N)=O)NC(=O)[C@H](CCC(=O)O)NC1=O; listed as Homo sapiens) [SEQ ID NO: 72] | significant helicity | – | negative CD signal between 200 nm and 230 nm [1]: −20 to −30 Δε |
